Source: article PMC6477676, “Staufen2-mediated RNA recognition and localization requires combinatorial action of multiple domains”

Key:
mStau2 dsRBD1-2 K59A [1] = target: T1, mStau2 dsRBD1-2 K59A (Mus musculus, UniProt Q8CJ67 8-181, K59A); test: SPR; Hill n 1.2; SPR: HBS-EP (10 mM HEPES pH 7.4, 150 mM NaCl, 3 mM EDTA, 0.005% P20); EMSA: 5 nM RNA, protein buffer (40 mM Bis-Tris pH 7, 150 mM NaCl, 2 mM DTT presumed), 4% glycerol, 30 ug/mL yeast tRNA, RT; NMR: 150 mM NaCl, 20 mM Na phosphate pH 7.0, 5 mM DTT, 298 K; details: protein: recombinant; label: 5' 32P (EMSA); biotin (SPR); hairpin, 18 bp stem
T1 sequence: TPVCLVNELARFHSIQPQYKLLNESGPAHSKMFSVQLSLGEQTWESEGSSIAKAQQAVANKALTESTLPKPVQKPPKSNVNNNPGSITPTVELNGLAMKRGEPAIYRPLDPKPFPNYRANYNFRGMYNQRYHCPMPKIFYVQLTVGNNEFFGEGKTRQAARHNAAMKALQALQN

mStau2 dsRBD2 = target: T2, mStau2 dsRBD2 (Mus musculus, UniProt Q8CJ67 95-181); test: SPR; Hill n 1.3; SPR: HBS-EP (10 mM HEPES pH 7.4, 150 mM NaCl, 3 mM EDTA, 0.005% P20); EMSA: 5 nM RNA, protein buffer (40 mM Bis-Tris pH 7, 150 mM NaCl, 2 mM DTT presumed), 4% glycerol, 30 ug/mL yeast tRNA, RT; NMR: 150 mM NaCl, 20 mM Na phosphate pH 7.0, 5 mM DTT, 298 K; details: protein: recombinant; label: 5' 32P (EMSA); biotin (SPR); hairpin, 18 bp stem
T2 sequence: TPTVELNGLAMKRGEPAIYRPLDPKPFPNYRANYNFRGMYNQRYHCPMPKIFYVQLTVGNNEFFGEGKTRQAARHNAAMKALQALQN

mStau2 dsRBD1-2 E99A = target: T3, mStau2 dsRBD1-2 E99A (Mus musculus, UniProt Q8CJ67 8-181, E99A); test: SPR; Hill n 1.5; SPR: HBS-EP (10 mM HEPES pH 7.4, 150 mM NaCl, 3 mM EDTA, 0.005% P20); EMSA: 5 nM RNA, protein buffer (40 mM Bis-Tris pH 7, 150 mM NaCl, 2 mM DTT presumed), 4% glycerol, 30 ug/mL yeast tRNA, RT; NMR: 150 mM NaCl, 20 mM Na phosphate pH 7.0, 5 mM DTT, 298 K; details: protein: recombinant; label: 5' 32P (EMSA); biotin (SPR); hairpin, 18 bp stem
T3 sequence: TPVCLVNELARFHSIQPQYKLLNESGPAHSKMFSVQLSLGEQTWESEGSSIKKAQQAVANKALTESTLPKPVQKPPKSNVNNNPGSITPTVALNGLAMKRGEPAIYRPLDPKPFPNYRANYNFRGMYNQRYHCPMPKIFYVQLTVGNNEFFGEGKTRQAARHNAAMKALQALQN

mStau2 dsRBD1-2 H36A = target: T4, mStau2 dsRBD1-2 H36A (Mus musculus, UniProt Q8CJ67 8-181, H36A); test: SPR; Hill n 0.9; SPR: HBS-EP (10 mM HEPES pH 7.4, 150 mM NaCl, 3 mM EDTA, 0.005% P20); EMSA: 5 nM RNA, protein buffer (40 mM Bis-Tris pH 7, 150 mM NaCl, 2 mM DTT presumed), 4% glycerol, 30 ug/mL yeast tRNA, RT; NMR: 150 mM NaCl, 20 mM Na phosphate pH 7.0, 5 mM DTT, 298 K; details: protein: recombinant; label: 5' 32P (EMSA); biotin (SPR); imperfect hairpin, 26 bp with two bulges
T4 sequence: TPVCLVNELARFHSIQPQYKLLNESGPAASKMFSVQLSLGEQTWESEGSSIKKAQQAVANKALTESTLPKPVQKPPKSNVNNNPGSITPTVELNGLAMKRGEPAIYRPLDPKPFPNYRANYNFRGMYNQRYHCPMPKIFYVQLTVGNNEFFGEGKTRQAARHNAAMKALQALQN

mStau2 dsRBD1-2 K59A [2] = target: T1, mStau2 dsRBD1-2 K59A; test: as above; details: protein: recombinant; label: 5' 32P (EMSA); biotin (SPR); imperfect hairpin, 26 bp with two bulges
mStau2 dsRBD1 = target: T5, mStau2 dsRBD1 (Mus musculus, UniProt Q8CJ67 8-75); test: SPR; up to 1 uM; SPR: HBS-EP (10 mM HEPES pH 7.4, 150 mM NaCl, 3 mM EDTA, 0.005% P20); EMSA: 5 nM RNA, protein buffer (40 mM Bis-Tris pH 7, 150 mM NaCl, 2 mM DTT presumed), 4% glycerol, 30 ug/mL yeast tRNA, RT; NMR: 150 mM NaCl, 20 mM Na phosphate pH 7.0, 5 mM DTT, 298 K; details: protein: recombinant; label: 5' 32P (EMSA); biotin (SPR); imperfect hairpin, 26 bp with two bulges
T5 sequence: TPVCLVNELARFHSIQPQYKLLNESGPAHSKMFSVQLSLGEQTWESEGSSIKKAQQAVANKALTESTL

Binder | Kd (mStau2 dsRBD1-2 K59A [1]) [nM] | Kd (mStau2 dsRBD2) [nM] | Kd (mStau2 dsRBD1-2 E99A) [nM] | Kd (mStau2 dsRBD1-2 H36A) [nM] | Kd (mStau2 dsRBD1-2 K59A [2]) [nM] | binding result (mStau2 dsRBD1)
GGUAUAUACAUGCACAUGCAAUUUGUGUAUGUGUAUGUAUAUA (structured_RNA) [SRS2+5] | 509 ± 136 | 650 ± 247 | 635 ± 308 |  |  | 
SRS* (SRS3) (structured_RNA) RNA: GGUAUGUGUGAAUGUGCAUGAAUAUAUAUAUAUAUGCAUAUAUAUAUUUGUAUAUGUUCACACAUG |  |  |  | 499 ± 149 | 624 ± 142 | no binding
